ChEMBL document CHEMBL2073968, “Multidrug resistance protein 4 (MRP4/ABCC4) mediates efflux of bimane-glutathione” (Int J Biochem Cell Biol, 2004)

Substrate: [H][C@@]12CC=C3C[C@@H](OS(=O)(=O)O)CC[C@]3(C)[C@@]1([H])CC[C@]1(C)C(=O)CC[C@@]21[H]
Experiment: TP_TRANSPORTER: uptake in membrane vesicles from MRP1-expressing Sf9 cells
Assay type: functional, cell membranes, Membrane vesicle

B1: Multidrug resistance-associated protein 1 (Homo sapiens) (protein)
chain: MALRGFCSADGSDPLWDWNVTWNTSNPDFTKCFQNTVLVWVPCFYLWACFPFYFLYLSRHDRGYIQMTPLNKTKTALGFLLWIVCWADLFYSFWERSRGIFLAPVFLVSPTLLGITMLLATFLIQLERRKGVQSSGIMLTFWLVALVCALAILRSKIMTALKEDAQVDLFRDITFYVYFSLLLIQLVLSCFSDRSPLFSETIHDPNPCPESSASFLSRITFWWITGLIVRGYRQPLEGSDLWSLNKEDTSEQVVPVLVKNWKKECAKTRKQPVKVVYSSKDPAQPKESSKVDANEEVEALIVKSPQKEWNPSLFKVLYKTFGPYFLMSFFFKAIHDLMMFSGPQILKLLIKFVNDTKAPDWQGYFYTVLLFVTACLQTLVLHQYFHICFVSGMRIKTAVIGAVYRKALVITNSARKSSTVGEIVNLMSVDAQRFMDLATYINMIWSAPLQVILALYLLWLNLGPSVLAGVAVMVLMVPVNAVMAMKTKTYQVAHMKSKDNRIKLMNEILNGIKVLKLYAWELAFKDKVLAIRQEELKVLKKSAYLSAVGTFTWVCTPFLVALCTFAVYVTIDENNILDAQTAFVSLALFNILRFPLNILPMVISSIVQASVSLKRLRIFLSHEELEPDSIERRPVKDGGGTNSITVRNATFTWARSDPPTLNGITFSIPEGALVAVVGQVGCGKSSLLSALLAEMDKVEGHVAIKGSVAYVPQQAWIQNDSLRENILFGCQLEEPYYRSVIQACALLPDLEILPSGDRTEIGEKGVNLSGGQKQRVSLARAVYSNADIYLFDDPLSAVDAHVGKHIFENVIGPKGMLKNKTRILVTHSMSYLPQVDVIIVMSGGKISEMGSYQELLARDGAFAEFLRTYASTEQEQDAEENGVTGVSGPGKEAKQMENGMLVTDSAGKQLQRQLSSSSSYSGDISRHHNSTAELQKAEAKKEETWKLMEADKAQTGQVKLSVYWDYMKAIGLFISFLSIFLFMCNHVSALASNYWLSLWTDDPIVNGTQEHTKVRLSVYGALGISQGIAVFGYSMAVSIGGILASRCLHVDLLHSILRSPMSFFERTPSGNLVNRFSKELDTVDSMIPEVIKMFMGSLFNVIGACIVILLATPIAAIIIPPLGLIYFFVQRFYVASSRQLKRLESVSRSPVYSHFNETLLGVSVIRAFEEQERFIHQSDLKVDENQKAYYPSIVANRWLAVRLECVGNCIVLFAALFAVISRHSLSAGLVGLSVSYSLQVTTYLNWLVRMSSEMETNIVAVERLKEYSETEKEAPWQIQETAPPSSWPQVGRVEFRNYCLRYREDLDFVLRHINVTINGGEKVGIVGRTGAGKSSLTLGLFRINESAEGEIIIDGINIAKIGLHDLRFKITIIPQDPVLFSGSLRMNLDPFSQYSDEEVWTSLELAHLKDFVSALPDKLDHECAEGGENLSVGQRQLVCLARALLRKTKILVLDEATAAVDLETDDLIQSTIRTQFEDCTVLTIAHRLNTIMDYTRVIVLDKGEIQEYGAPSDLLQQRGLFYSMAKDAGLV
With B1 the Km was 5 µM.
